Measurements: patent publication US20210008175A1, “BACTERIOPHAGE LYSIN AND ANTIBIOTIC COMBINATIONS AGAINST GRAM POSITIVE BACTERIA” (priority 2012, published 2021)

What was measured:
Staphylococcus aureus = assay: MIC, broth microdilution (CLSI M07-A9); assay type: cell-based; conditions: for MIC90 / MIC90 [uM]: with reducing agent
Lactobacillus spp. = assay: MIC, sensitivity of human gut bacteria; assay type: cell-based; conditions: N 6
[1] = system: Staphylococcus aureus (MRSA and MSSA strains); assay: Synergy time-kill assay (6 hours, combination compared to most active single agent); assay type: cell-based; conditions: ½ MIC PlySs2 or ¼ MIC vancomycin alone, up to 6 hours
MRSA = assay: Murine bacteremia model, MRSA CFUs in the blood; assay type: in vivo, mice; conditions: 5.25 mg/kg PlySs2 at 2-hours post-infection
[2] = system: MRSA Staphylococcus aureus strain (MW2); assay: microbe, parasite or virus in culture; assay type: cell-based

B1: PlySs2: bacteriophage lysin derived from Streptococcus suis, amino acid sequence of FIG. 29 (SEQ ID NO: 1), N-terminal CHAP and C-terminal SH3 domain (protein, listed as Streptococcus suis)
chain: MTTVNEALNNVRAQVGSGVSVGNGECYALASWYERMISPDATVGLGAGVGWVSGAIGDTISAKNIGSSYNWQANGWTVSTSGPFKAGQIVTLGATPGNPYGHVVIVEAVDGDRLTILEQNYGGKRYPVRNYYSAASYRQQVVHYITPPGTVAQSAPNLAGSRSYRETGTMTVTVDALNVRRAPNTSGEIVAVYKRGESFDYDTVIIDVNGYVWVSYIGGSGKRNYVATGATKDGKRFGNAWGTFK
MIC90 (Staphylococcus aureus; DRSA (n = 8)): 4
MIC90 [uM] (Staphylococcus aureus; DRSA (n = 8)): 0.15 µM
MIC 90% (Staphylococcus aureus; Daptomycin-resistant (8)): 4
MIC90 (Staphylococcus aureus; LRSA (n = 5)): 2
MIC90 [uM] (Staphylococcus aureus; LRSA (n = 5)): 0.08 µM
MIC 90% (Staphylococcus aureus; Linezolid-resistant (5)): 2
MIC90 (Staphylococcus aureus; MRSA (n = 45)): 4
MIC90 [uM] (Staphylococcus aureus; MRSA (n = 45)): 0.15 µM
MIC90 (Staphylococcus aureus; MSSA (n-28)): 4
MIC90 [uM] (Staphylococcus aureus; MSSA (n-28)): 0.15 µM
MIC 50% (Staphylococcus aureus; Methicillin resistant (120)): 4 µg/mL
MIC 90% (Staphylococcus aureus; Methicillin resistant (120)): 8 µg/mL
MIC Range (Staphylococcus aureus; Methicillin resistant (120)): 1 to 16 µg/mL
MIC 50% (Staphylococcus aureus; Methicillin susceptible (103)): 4 µg/mL
MIC 90% (Staphylococcus aureus; Methicillin susceptible (103)): 8 µg/mL
MIC Range (Staphylococcus aureus; Methicillin susceptible (103)): 1 to 16 µg/mL
MIC90 (Staphylococcus aureus; VISA (n = 10)): 32
MIC90 [uM] (Staphylococcus aureus; VISA (n = 10)): 1.2 µM
MIC90 (Staphylococcus aureus; VRSA (n = 14)): 2
MIC90 [uM] (Staphylococcus aureus; VRSA (n = 14)): 0.08 µM
MIC 90% (Staphylococcus aureus; Vancomycin-intermediate (31)): 32
MIC 90% (Staphylococcus aureus; Vancomycin-resistant (14)): 4
MIC (Staphylococcus aureus; all strains tested including 103 MSSA and 120 MRSA isolates): 8 µg/mL
MIC (Staphylococcus aureus; strain MW2, without DTT): 32 µg/mL
CF-301 MIC (Lactobacillus spp.): >512 µg/mL
effectiveness alone at sub-MIC doses [1]: ineffective or poorly effective
decrease in CFUs in blood (MRSA; in 15 minutes): 0.5 log10
decrease in CFUs in blood (MRSA; within 60 minutes of treatment): 2 log
suppression of daptomycin resistance relative to daptomycin alone ([2]; sub-MIC PlySs2 (4 ug/ml)): 8 to 16 fold
suppression of vancomycin resistance relative to vancomycin alone ([2]; sub-MIC PlySs2 (8 ug/ml)): 4 to 8 fold
